From US20040071656A1, “Modulation of heat-shock-protein-based immunotherapies” (priority 2001, published 2004)

Target: T1, exoplasmic domain of human CD40 (GST-CD40) (Homo sapiens, UniProt P25942)
T1 construct: The cDNA for the exoplasmic domain of CD40 (amino acids 20-212); made in house; host or cells: E. coli, pGEX-2T
Assay: GST-CD40 binding and competition assay with recombinant Hsp70 and its domains
Protocol: For binding assays with recombinant Hsp70 and its domains, 3 μM His6-Hsp70 or its His6-tagged domains were incubated with 2 mM ATP, 2 mM ADP or 2 mM ADP and 28 μM peptide C in 50 μl binding buffer (10 mM MOPS/KOH, pH 7.2, 150 mM KCl and 3 mM MgCl2) for 30 min at 37° C. In competition experiments binding was probed with either a 10-fold excess of Hsp70, the two domains, or DnaK, or with a 5-fold excess of Hip or Bag 1 for 10 min at 0° C. To this end, Hsp70, N70, C70 and DnaK were preincubated with ADP, ATP and peptide C as described above. For comparison of CD40 binding of Hsp70 and its N-terminal domain, Hsp70 was preincubated in the presence or absence (mock treatment) of a 30-fold molar excess of peptide C. 3 μM of GST or GST-CD40 was added to the samples and incubated for 20 min at 16° C. For titration of peptide C, 5- to 50-fold excess of peptide C (15-150 μM) was added to the preincubation of Hsp70. Thereafter the samples were combined with 20 μl of 1% BSA-treated Glutathione Sepharose 4 Fast Flow and incubated in the presence of 2 mM DTT for another 20 min at 16° C. Unbound proteins were removed by washing the beads three times with 1 ml PBS, and immobilized proteins eluted with 30 μl elution buffer for 20 min at 22° C. 10 μl of the eluates were subjected to SDS-PAGE and analyzed by immunoblotting using a Penta-His-antibody (Quiagen). Blot signals were quantified by Quantity One (Biorad).
Details for FIG. 3. Binding of Hsp70 to CD40 is direct and depends on ADP. A. Hela-cell lysates were incubated with GST (control), or GST-CD40 in the amounts indicated. Thereafter samples were affinity purified on glutathione-Sepharose as outlined in Experimental Procedures, subjected to SDS-PAGE and analyzed by immunoblotting with antibodies directed against Hsc70 and Hsp70 (upper lanes), and against Hsp90 (lower lanes). B. Human recombinant His6-tagged Hsp70 was incubated with ATP, ADP, or an excess of peptide C, followed by addition of GST-CD40 or GST alone. After affinity purification samples were analyzed by immunoblotting as described in A, using antibodies directed against the His6-tag. C. Recombinant human His6-tagged Hsp70 was incubated with peptide C, either in the presence or absence of ADP. The reactions were then incubated with ANA1-cell lysates as described in Experimental Procedures. Protein bound to Hsp70 was analyzed by affinity purification on Ni-NTA-agarose and immunoblotting with antibodies directed against CD40.
Details for FIG. 4. Hsp70 binding to CD40 is mediated by the N-terminal ATPase domain and is competed by Hip. A. Human His6-tagged Hsp70, its N- or C-terminal domains, or recombinant bacterial DnaK was incubated either with GST-CD40, or with GST. B. Recombinant DnaK was incubated with ATP, ADP, or an excess of peptide C, followed by addition of GST-CD40 or GST alone. C. His6-tagged N-terminal domain of Hsp70 (N70) was incubated in the presence of ATP or ADP, followed by incubation with a 10-fold molar excess of Hsp70 in the presence of ADP or ATP. D: Recombinant human His6-tagged Hsp70 protein was incubated with a 5-fold molar excess of either recombinant Hip protein or Bag-1, and with GST-CD40 or GST as a control. Bound protein was analyzed after affinity purification on glutathione-Sepharose by immunoblotting with an antibody directed against the N-terminal His6-tags or with an antibody directed against DnaK.
Details for FIG. 5. Peptide substrate stimulates Hsp70 binding to CD40. A. His6-tagged Hsp70 was incubated with increasing concentrations of peptide C as indicated in the Figure, and binding to GST-CD40 analyzed by immunoblotting with antibodies directed against the His6-tag. The lower panel is a quantitation of the data. B. Equivalent concentrations (3 μM) of His6-tagged Hsp70 (in the presence of a 30-fold molar excess of peptide C) or His6-tagged N70 was incubated with GST-CD40, and bound protein was analyzed as described above.

T1 sequence (P25942 20-212): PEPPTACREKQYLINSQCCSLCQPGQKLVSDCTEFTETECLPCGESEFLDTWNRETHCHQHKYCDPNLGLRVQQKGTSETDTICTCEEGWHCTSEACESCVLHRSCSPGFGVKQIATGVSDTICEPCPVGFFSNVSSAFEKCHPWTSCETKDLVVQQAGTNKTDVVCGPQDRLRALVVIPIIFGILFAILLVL

| Substance | binding efficiency to CD40, substrate-saturated Hsp70 versus N-terminal domain (3 μM each, ADP states, Hsp70 with 30-fold molar excess of peptide C) | direct binding to CD40 (GST-CD40 pull down), nucleotide dependence (ADP versus ATP) | competition for the binding of full-length Hsp70 to CD40 (ADP, 5-fold molar excess of competitor) | Hsp70 binding to CD40 in the presence of ADP (3 μM His6-Hsp70, 2 mM ADP) | Hsp70 binding to CD40 in the presence of ATP (3 μM His6-Hsp70, 2 mM ATP) |
| --- | --- | --- | --- | --- | --- |
| N70: Recombinant N-terminal ATPase domain of human Hsp70, residues 5-381 (SEQ ID NO: 1) | bound to CD40 with similar efficiencies | bound to CD40 in the presence of ADP but not ATP | efficiently competed | – | – |
| Hsp70: Recombinant human heat shock protein 70, expressed and purified as His-tagged protein | – | – | – | only seen in the presence of ADP | barely detectable |
